Test results: paper doi:10.1101/420174

Molecular target: afTMEM16 scramblase from Aspergillus fumigatus (Aspergillus fumigatus)
Experiment: cryo-EM structure

afTMEM16 scramblase from Aspergillus fumigatus (natural protein)
stoichiometry N: 2
